Results from publication PMC5360572 (EBioMedicine, 2017).

Legend:
Assay in all cases: SPR; BIAcore 3000, 25 °C; PD-L1-Ig or PD-L2-Ig immobilized on CM5 chip by amine coupling; soluble monomeric PD-1 or mutants (0.01–100 μM) injected at 20 μl/min; equilibrium Kd, 1:1 Langmuir model
Conditions in all cases: both partners purified
[1] = target: T1, human PD-L2 Ig fusion protein (human, UniProt Q9BQ51 20-220)
T1 construct: characterized by SEC prior to use; also called huPD-L2; B7-DC; source: bought: R&D Systems
T1 sequence (looked up): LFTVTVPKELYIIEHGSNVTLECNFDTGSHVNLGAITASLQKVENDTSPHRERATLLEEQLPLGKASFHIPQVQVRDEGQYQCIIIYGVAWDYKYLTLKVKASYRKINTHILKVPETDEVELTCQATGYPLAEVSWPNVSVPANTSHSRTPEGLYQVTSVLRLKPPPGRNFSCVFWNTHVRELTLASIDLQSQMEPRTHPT

[2] = target: T2, human PD-L1 Ig fusion protein (human, UniProt Q9NZQ7 19-238)
T2 construct: characterized by SEC prior to use; detected on cells with anti-human IgG Fcγ-specific F(ab')2; also called huPD-L1; B7-H1; source: bought: R&D Systems
T2 sequence (Q9NZQ7 19-238): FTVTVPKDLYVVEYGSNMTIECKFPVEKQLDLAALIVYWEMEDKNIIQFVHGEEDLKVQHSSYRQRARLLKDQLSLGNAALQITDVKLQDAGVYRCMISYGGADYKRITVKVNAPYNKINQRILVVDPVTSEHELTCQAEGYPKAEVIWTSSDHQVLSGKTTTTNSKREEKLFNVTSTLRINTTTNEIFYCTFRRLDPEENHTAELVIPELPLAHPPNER

[3] = target: T3, mouse PD-L1 Ig fusion protein (mouse, UniProt Q9EP73 19-239)
T3 construct: mouse PD-L1 part of a bought Ig fusion protein; also called mPD-L1; murine PD-L1-Ig; source: bought: R&D Systems
T3 sequence (Q9EP73 19-239): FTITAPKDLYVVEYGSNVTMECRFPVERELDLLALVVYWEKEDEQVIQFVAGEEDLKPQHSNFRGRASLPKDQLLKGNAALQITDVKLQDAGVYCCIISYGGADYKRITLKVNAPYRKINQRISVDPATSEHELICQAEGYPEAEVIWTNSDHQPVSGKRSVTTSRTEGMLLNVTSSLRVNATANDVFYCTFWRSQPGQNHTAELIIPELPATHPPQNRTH

[4] = target: T4, mouse PD-L2 Ig fusion protein (mouse, UniProt Q9WUL5 20-221)
T4 construct: mouse PD-L2 part of a bought Ig fusion protein; also called mPD-L2; murine PD-L2-Ig; source: bought: R&D Systems
T4 sequence (looked up): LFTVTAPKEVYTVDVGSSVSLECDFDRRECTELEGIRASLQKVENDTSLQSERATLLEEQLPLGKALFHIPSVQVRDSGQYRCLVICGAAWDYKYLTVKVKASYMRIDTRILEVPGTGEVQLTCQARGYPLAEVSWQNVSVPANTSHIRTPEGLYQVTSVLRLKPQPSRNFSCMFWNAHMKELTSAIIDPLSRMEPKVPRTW

B1: mouse PD-1 A132L mutant (soluble, monomeric) (domain or fragment)
chain: SLTFYPAWLTVSEGANATFTCSLSNWSEDLMLNWNRLSPSNQTEKQAAFCNGLSQPVQDARFQIIQLPNRHDFHMNILDTRRNDSGIYLCGAISLHPKLKIEESPGAELVVTERILE
notes: the same molecule is used for the SPR analyte and for the crystallised complexes (PDB 3SBW, 3RNK, 3BP6); also called mA132L; mouse analog of A132L
- Kd [1]: 1180 nM
- Kd [2]: 480 nM
- Kd [3]: 2780 nM
- Kd [4]: 470 nM
